Tests used:
MCP2201 [1] = target: T1, MCP2201 (Comamonas thiooxydans, UniProt A0ABF7PFR0); experiment: analytical ultracentrifugation (ligand-induced LBD dimerization); assay type: binding
T1 construct: gene CtCNB1_2201; LBD (residues 58–203), N-terminal His6-tag
T1 sequence (A0ABF7PFR0 58-203): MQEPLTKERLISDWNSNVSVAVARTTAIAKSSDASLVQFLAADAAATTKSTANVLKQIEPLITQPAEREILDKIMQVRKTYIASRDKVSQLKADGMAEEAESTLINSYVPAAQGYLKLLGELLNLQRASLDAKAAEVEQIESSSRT

MCP2201 [2] = target: T2, MCP2201 (Comamonas thiooxydans, UniProt A0ABF7PFR0, T105A); experiment: ITC; assay type: binding
T2 construct: gene CtCNB1_2201; T105A LBD

MCP2201 [3] = target: T1, MCP2201; experiment: ITC; crystal structure at […] Å; assay type: binding
[4] = target: MCP2201 LBD mutant T105A (T105A LBD) (Comamonas testosteroni CNB-1); experiment: AUC; ligand-free; Beckman XL-I, 60,000 x g, 7 h, 4 °C
[5] = target: MCP2201 LBD mutant T105A (T105A LBD) (Comamonas testosteroni CNB-1); experiment: AUC; in the presence of citrate; Beckman XL-I, 60,000 x g, 7 h, 4 °C
[6] = target: MCP2201 LBD mutant T105A (T105A LBD) (Comamonas testosteroni CNB-1); experiment: AUC; in the presence of D-malate; Beckman XL-I, 60,000 x g, 7 h, 4 °C
[7] = target: ligand-binding domain of MCP2201 (MCP2201 LBD) (Comamonas testosteroni CNB-1); experiment: AUC; ligand-free; Beckman XL-I, 60,000 x g, 7 h, 4 °C
[8] = target: ligand-binding domain of MCP2201 (MCP2201 LBD) (Comamonas testosteroni CNB-1); experiment: AUC; in the presence of D-malate; Beckman XL-I, 60,000 x g, 7 h, 4 °C
[9] = target: ligand-binding domain of MCP2201 (MCP2201 LBD) (Comamonas testosteroni CNB-1); experiment: AUC; in the presence of L-malate; Beckman XL-I, 60,000 x g, 7 h, 4 °C
[10] = target: ligand-binding domain of MCP2201 (MCP2201 LBD) (Comamonas testosteroni CNB-1); experiment: ITC; dilution: 1.1 mM protein in 10 mM D-malate, 20 mM Tris pH 7.5, 150 mM NaCl injected into the same buffer, 25 °C; oligomer dissociation model; dimer to monomers

`O=C(O)CC(O)C(=O)O` (stereo in doubt) [L-malate] was tested, and the “analytical ultracentrifugation (ligand-induced LBD dimerization)” value (MCP2201 [1]) was “the D-malate-bound MCP2201 LBD predominately occurred as a dimer, the same as the L-malate-bound LBD (Figure 3B)”.
`O=C(O)C[C@@H](O)C(=O)O` [D-malate] was tested, and the Kd (MCP2201 [2]) was 5.5 ± 0.01 µM and the Kd (MCP2201 [3]) was 40 ± 3.3 µM.
In the case of `O=C(O)CC(O)(CC(=O)O)C(=O)O` [citrate], the Kd (MCP2201 [2]) is reported as 670 ± 270 µM.
Molecule “MCP2201 LBD mutant T105A (T105A LBD) (domain or fragment)” has a stoichiometry N [4] of 2, a stoichiometry N [5] of 2 and a stoichiometry N [6] of 2.
“ligand-binding domain of MCP2201 (MCP2201 LBD) (domain or fragment)” gave a stoichiometry N [7] of 2, a stoichiometry N [8] of 2 and a stoichiometry N [9] of 2. It also gave a Kd [10] of 0.027 µM.
